Laboratory results: US20180155451A1 (published 2018)

T1: FcγRIIa R (extracellular domain with a His tag at the C terminus) (human, UniProt P12318 34-217)
T1 construct: extracellular domain; expressed in FreeStyle293 cells; also called FcgRIIa R; FcγRIIa type R; not shown: His tag at the C terminus
T1 sequence (looked up): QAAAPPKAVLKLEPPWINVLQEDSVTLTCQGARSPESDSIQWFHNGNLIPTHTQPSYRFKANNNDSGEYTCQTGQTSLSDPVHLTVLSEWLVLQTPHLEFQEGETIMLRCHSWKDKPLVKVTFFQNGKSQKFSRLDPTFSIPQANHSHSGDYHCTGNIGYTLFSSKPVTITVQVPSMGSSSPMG

T2: FcγRIIa H (human, UniProt P12318 34-217)
T2 construct: extracellular domain; also called FcgRIIa H type; 2aH; not shown: His tag at the C terminus
T2 sequence (looked up): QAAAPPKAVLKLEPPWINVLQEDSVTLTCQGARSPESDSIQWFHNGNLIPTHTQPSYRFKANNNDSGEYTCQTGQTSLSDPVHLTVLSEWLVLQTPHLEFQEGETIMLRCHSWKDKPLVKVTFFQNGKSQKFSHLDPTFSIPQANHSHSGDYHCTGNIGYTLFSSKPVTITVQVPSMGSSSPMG


target: T1, FcγRIIa R (extracellular domain with a …); assay: SPR Biacore, relative binding

Row | Ho/Con_2aR | Binder
1 | 102 % of GpH7-B3/GpL16-k0 (=100) | GpH7-B3 variant S337_02A/GpL16-k0 (antibody, human IgG1, kappa, homodimerized; mutation in both H chains; also called Ho Ab) heavy: not shown light: DIVMTQSPLSLPVTPGEPASISCQASESLVHSNRNTYLHWYLQKPGQSPQLLIYKVSNRFSGVPDRFSGSGSGTDFTLKISRVEAEDVGVYYCSQNTHVPPTFGQGTKVEIERTVAAPSVFIFPPSDEQLKSGTASVVCLLNNFYPREAKVQWKVDNALQSGNSQESVTEQDSKDSTYSLSSTLTLSKADYEKHKVYACEVTHQGLSSPVTKSFNRGEC
2 | 120 % of GpH7-B3/GpL16-k0 (=100) | GpH7-B3 variant A327_09D/GpL16-k0 (antibody, human IgG1, kappa, homodimerized; mutation in both H chains; also called Ho Ab) heavy: not shown light: DIVMTQSPLSLPVTPGEPASISCQASESLVHSNRNTYLHWYLQKPGQSPQLLIYKVSNRFSGVPDRFSGSGSGTDFTLKISRVEAEDVGVYYCSQNTHVPPTFGQGTKVEIERTVAAPSVFIFPPSDEQLKSGTASVVCLLNNFYPREAKVQWKVDNALQSGNSQESVTEQDSKDSTYSLSSTLTLSKADYEKHKVYACEVTHQGLSSPVTKSFNRGEC
3 | 104 % of GpH7-B3/GpL16-k0 (=100) | GpH7-B3 variant A327_10E/GpL16-k0 (antibody, human IgG1, kappa, homodimerized; mutation in both H chains; also called Ho Ab) heavy: not shown light: DIVMTQSPLSLPVTPGEPASISCQASESLVHSNRNTYLHWYLQKPGQSPQLLIYKVSNRFSGVPDRFSGSGSGTDFTLKISRVEAEDVGVYYCSQNTHVPPTFGQGTKVEIERTVAAPSVFIFPPSDEQLKSGTASVVCLLNNFYPREAKVQWKVDNALQSGNSQESVTEQDSKDSTYSLSSTLTLSKADYEKHKVYACEVTHQGLSSPVTKSFNRGEC
4 | 106 % of GpH7-B3/GpL16-k0 (=100) | GpH7-B3 variant A330_01G/GpL16-k0 (antibody, human IgG1, kappa, homodimerized; mutation in both H chains; also called Ho Ab) heavy: not shown light: DIVMTQSPLSLPVTPGEPASISCQASESLVHSNRNTYLHWYLQKPGQSPQLLIYKVSNRFSGVPDRFSGSGSGTDFTLKISRVEAEDVGVYYCSQNTHVPPTFGQGTKVEIERTVAAPSVFIFPPSDEQLKSGTASVVCLLNNFYPREAKVQWKVDNALQSGNSQESVTEQDSKDSTYSLSSTLTLSKADYEKHKVYACEVTHQGLSSPVTKSFNRGEC

target: T2, FcγRIIa H; assay: SPR Biacore, relative binding

Row | He/Con_2aH | Binder
5 | 102 % of GpH7-A5/GpH7-B3/GpL16-k0 (=100) | GpH7-A5/GpH7-B3 variant S337_10E/GpL16-k0 (antibody, human IgG1, kappa, also called He Ab S337_10E) heavy 1: not shown heavy 2: not shown light: DIVMTQSPLSLPVTPGEPASISCQASESLVHSNRNTYLHWYLQKPGQSPQLLIYKVSNRFSGVPDRFSGSGSGTDFTLKISRVEAEDVGVYYCSQNTHVPPTFGQGTKVEIERTVAAPSVFIFPPSDEQLKSGTASVVCLLNNFYPREAKVQWKVDNALQSGNSQESVTEQDSKDSTYSLSSTLTLSKADYEKHKVYACEVTHQGLSSPVTKSFNRGEC
6 | 103 % of GpH7-A5/GpH7-B3/GpL16-k0 (=100) | GpH7-A5/GpH7-B3 variant T335_01G/GpL16-k0 (antibody, human IgG1, kappa, also called He Ab T335_01G) heavy 1: not shown heavy 2: not shown light: DIVMTQSPLSLPVTPGEPASISCQASESLVHSNRNTYLHWYLQKPGQSPQLLIYKVSNRFSGVPDRFSGSGSGTDFTLKISRVEAEDVGVYYCSQNTHVPPTFGQGTKVEIERTVAAPSVFIFPPSDEQLKSGTASVVCLLNNFYPREAKVQWKVDNALQSGNSQESVTEQDSKDSTYSLSSTLTLSKADYEKHKVYACEVTHQGLSSPVTKSFNRGEC
7 | 108 % of GpH7-A5/GpH7-B3/GpL16-k0 (=100) | GpH7-A5/GpH7-B3 variant T335_07I/GpL16-k0 (antibody, human IgG1, kappa, also called He Ab T335_07I) heavy 1: not shown heavy 2: not shown light: DIVMTQSPLSLPVTPGEPASISCQASESLVHSNRNTYLHWYLQKPGQSPQLLIYKVSNRFSGVPDRFSGSGSGTDFTLKISRVEAEDVGVYYCSQNTHVPPTFGQGTKVEIERTVAAPSVFIFPPSDEQLKSGTASVVCLLNNFYPREAKVQWKVDNALQSGNSQESVTEQDSKDSTYSLSSTLTLSKADYEKHKVYACEVTHQGLSSPVTKSFNRGEC
8 | 103 % of GpH7-A5/GpH7-B3/GpL16-k0 (=100) | GpH7-A5/GpH7-B3 variant S337_14T/GpL16-k0 (antibody, human IgG1, kappa, also called He Ab S337_14T) heavy 1: not shown heavy 2: not shown light: DIVMTQSPLSLPVTPGEPASISCQASESLVHSNRNTYLHWYLQKPGQSPQLLIYKVSNRFSGVPDRFSGSGSGTDFTLKISRVEAEDVGVYYCSQNTHVPPTFGQGTKVEIERTVAAPSVFIFPPSDEQLKSGTASVVCLLNNFYPREAKVQWKVDNALQSGNSQESVTEQDSKDSTYSLSSTLTLSKADYEKHKVYACEVTHQGLSSPVTKSFNRGEC
9 | 120 % of GpH7-A5/GpH7-B3/GpL16-k0 (=100) | GpH7-A5/GpH7-B3 variant S267_02A/GpL16-k0 (antibody, human IgG1, kappa, also called He Ab S267_02A) heavy 1: not shown heavy 2: not shown light: DIVMTQSPLSLPVTPGEPASISCQASESLVHSNRNTYLHWYLQKPGQSPQLLIYKVSNRFSGVPDRFSGSGSGTDFTLKISRVEAEDVGVYYCSQNTHVPPTFGQGTKVEIERTVAAPSVFIFPPSDEQLKSGTASVVCLLNNFYPREAKVQWKVDNALQSGNSQESVTEQDSKDSTYSLSSTLTLSKADYEKHKVYACEVTHQGLSSPVTKSFNRGEC
10 | 103 % of GpH7-A5/GpH7-B3/GpL16-k0 (=100) | GpH7-A5/GpH7-B3 variant S324_10E/GpL16-k0 (antibody, human IgG1, kappa, also called He Ab S324_10E) heavy 1: not shown heavy 2: not shown light: DIVMTQSPLSLPVTPGEPASISCQASESLVHSNRNTYLHWYLQKPGQSPQLLIYKVSNRFSGVPDRFSGSGSGTDFTLKISRVEAEDVGVYYCSQNTHVPPTFGQGTKVEIERTVAAPSVFIFPPSDEQLKSGTASVVCLLNNFYPREAKVQWKVDNALQSGNSQESVTEQDSKDSTYSLSSTLTLSKADYEKHKVYACEVTHQGLSSPVTKSFNRGEC
